Data: paper PMC1635730

Columns and labels:
[1] = target: recombinant mesothelin expressed on human epidermoid epithelial A431 cells (human) (UniProt Q13421)
[2] = target: recombinant mesothelin expressed on human epidermoid epithelial A431 cells (human) (UniProt Q13421); remark: listed apart in the source
[3] = target: recombinant mesothelin tagged with the Fc fragment of rabbit IgG (human) (UniProt Q13421); experiment: flow cytometry on cells; inhibition: soluble MUC16 pre-incubated with meso-Fc (25 nM) for 1 h at 4°C; read out as meso-Fc left to bind OVCAR-3 cells
Sequence of recombinant mesothelin tagged with the Fc fragment of rabbit IgG (human) (Q13421 other isoform, or with tags, fused parts or gaps): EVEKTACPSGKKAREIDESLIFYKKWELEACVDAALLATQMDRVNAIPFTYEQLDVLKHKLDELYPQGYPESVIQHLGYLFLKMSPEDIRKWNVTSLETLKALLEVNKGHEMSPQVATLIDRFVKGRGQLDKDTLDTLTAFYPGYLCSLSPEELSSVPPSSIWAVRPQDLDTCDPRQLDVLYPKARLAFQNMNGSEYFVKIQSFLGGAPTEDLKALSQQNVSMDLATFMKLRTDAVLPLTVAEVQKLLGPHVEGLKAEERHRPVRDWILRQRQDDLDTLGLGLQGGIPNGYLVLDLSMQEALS

Sequence of recombinant mesothelin expressed on human epidermoid epithelial A431 cells (human) (Q13421 other isoform, or with tags, fused parts or gaps): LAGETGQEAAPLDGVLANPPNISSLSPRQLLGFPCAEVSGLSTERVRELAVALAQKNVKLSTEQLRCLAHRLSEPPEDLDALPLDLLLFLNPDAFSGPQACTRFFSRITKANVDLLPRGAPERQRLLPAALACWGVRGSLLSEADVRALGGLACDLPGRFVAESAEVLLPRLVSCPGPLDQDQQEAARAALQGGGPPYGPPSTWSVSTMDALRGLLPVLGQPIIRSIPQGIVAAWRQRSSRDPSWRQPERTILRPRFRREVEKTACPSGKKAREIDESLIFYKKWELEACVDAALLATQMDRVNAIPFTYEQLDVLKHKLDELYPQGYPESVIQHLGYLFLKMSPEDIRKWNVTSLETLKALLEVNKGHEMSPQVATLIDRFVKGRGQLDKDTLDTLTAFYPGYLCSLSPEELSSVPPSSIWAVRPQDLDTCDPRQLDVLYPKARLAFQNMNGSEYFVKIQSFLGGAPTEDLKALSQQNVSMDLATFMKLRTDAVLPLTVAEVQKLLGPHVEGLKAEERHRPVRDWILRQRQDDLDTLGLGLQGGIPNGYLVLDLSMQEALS

| reduction of heterotypic cell adhesion between #12 and A431-Meso+ cells by ascites of EOC patients (#15 and #24), flow cytometry [1] | heterotypic doublets between MUC16 positive #12 cells and A431-Meso+ cells in PBS with 1% BSA, percent of total live cells, flow cytometry [2] | percent inhibition of meso-Fc binding to OVCAR-3 cells (MUC16 at half the molar amount of meso-Fc) [3] | Substance |
| --- | --- | --- | --- |
| 33% | 25% | – | MUC16 expressed on the surface of the ovarian tumor cell line OVCAR-3, Q8WXI7 1-14507 |
| – | – | 80% | native MUC16 partially purified from OVCAR-3 cell culture media, Q8WXI7 1-14451 |
